In patent publication US20030182672A1:

Columns and labels:
[1] = target: HER-2 protein (also designated neu and erbB-2), endogenous in human MDA-MB-468 cells (human) (UniProt P04626); assay: FACS, fixed and permeabilized parental MDA-MB-468 cells, antibody at 1/100, Alexa Fluor 488 secondary
[2] = target: HER-2 protein (also designated neu and erbB-2), endogenous in human MDA-MB-468 cells (human) (UniProt P04626); assay: FACS, MDA-MB-468 cells, irrelevant IgG2b control at 1/100, Alexa Fluor 488 secondary; background

Geometric mean Fluorescence [1] | Mean Fluorescence [1] | Median Fluorescence [1] | Geometric mean Fluorescence [2] | Mean Fluorescence [2] | Substance
1090 | 1220 | 1180 |  |  | mouse Anti-erbB2 monoclonal antibody (Transduction Laboratories, Cat. No. E19420, an IgG2b isotype)
 |  |  | 122 | 137 | irrelevant primary antibody MART-1, an IgG2b antibody (NeoMarkers)
